What was measured:
(HeLa cells) = assay: cell death assay with ion channel inhibitors; format: cell-based; details: HAMLET 21-35 μM, three hours
Protocol: Cells were detached from cell culture flasks with versen (0.2 g EDTA in 200 ml H2O and 800 ml PBS), washed with PBS and resuspended in serum-free RPMI-1640. HAMLET dissolved in PBS was incubated with cells (0.5×10^6/ml for A549, A498 and HeLa cells; 1×10^6/ml for Jurkat) at 37° C. FCS was added after 1 hour. Cell death was quantified by trypan blue exclusion (Chroma Gesellschaft Schmid & Co) or by measuring ATP levels (ATPlite Kit, PerkinElmer, Infinite 200, Tecan). Light images were captured using the HOLOMONITOR™ M2 digital holographic microscope (Phase Holographic Imaging AB, Lund, Sweden).
For studies with inhibitors, cells were pretreated for 30 minutes. Inhibitors used were Gadolinium chloride (GdCl3, 100 μM), Barium chloride (BaCl2, 1 mM), Ruthenium red (30 μM), tetrandrine (10 μM) and amiloride (1 mM), all from Sigma Aldrich. For p38 inhibition, SB202190 (20 μM, Sigma Aldrich) or BIRB796 (10 μM, Axon Medchem) dissolved in DMSO was used. The wells were washed twice with PBS and new medium with inhibitor was added. For RNA interference, FlexiTube siRNA Premixes against MAPK11 (SI00606053), MAPK14 (SI00300769) and All Star Negative Control siRNA (SI03650318) from Qiagen was used. A549 forward was transfected using 25 nM final siRNA concentration in 24-well plate. […]

tumor cells [1] = assay: internalization of Alexa-fluor labeled HAMLET (confocal microscopy); format: cell-based; details: HAMLET 35 μM, 1 hour
Protocol: FIG. 2. Ion channel inhibitors rescue carcinoma cells from death and block HAMLET uptake and morphologic change. (A) Viability of lung carcinoma cells after exposure to HAMLET (21 or 35 μM, 3 h), quantified by trypan blue exclusion. […] (B) BaCl2 and amiloride prevented carcinoma cells from changing their morphology in response to HAMLET (Mean of two images in one experiment+SEMs). (C) Internalization of Alexa-fluor labeled HAMLET by tumor cells (35 μM, 1 hour), visualized by confocal microscopy. […] GAPDH was the loading control. (E) The transcriptomic response to HAMLET requires functional ion channels.
For live cell imaging, cells were pre-treated with SB202190 for 30 minutes, nuclei were stained with Hoechst 33342 (Invitrogen) and Alexa-Fluor 568-labeled HAMLET (10% labeled HAMLET, Molecular Probes) was added in serum-free medium. FCS was added after 1 hour. Fluorescence was detected with pinhole settings corresponding to 1 airy unit. The cells were kept at 37° C., 5% CO2 and examined unfixed by LSM510 DUO confocal microscopy (Carl Zeiss).

skin papillomas = details: topical administration, placebo controlled; cited from earlier work
[2] = tested on: kidney carcinoma (A498) cells; assay: extended microarray analysis (Illumina HumanHT-12); format: cell-based, human
Protocol: (§1) For the extended microarray analysis, gene expression was assessed by whole genome Illumina microarrays (HumanHT-12 Expression BeadChip). Data was normalized using cross-correlation (Chua et al., 2006 Nucleic Acids Research 34: e38). Genes with a log 2 fold change ≧1.2 in tumor cells and ≧2.0 in healthy, differentiated cells at any time point were regarded as differentially expressed (Benjamini-Hochberg adjusted p-value <0.05).
(§2) To identify the pathways that execute tumor cell death downstream of the ion channels, we further examined the global transcriptional responses to HAMLET in human lung carcinoma (A549) and kidney carcinoma (A498) cells over an extended period of 15 min to 24 hours. The p38 MAPK signaling pathway was identified as a top-scoring canonical pathway in A549 cells (FIG. 4A).
(§3) To examine the molecular basis of the difference in HAMLET susceptibility between carcinoma cells and healthy, differentiated cells, transcriptional profiles were compared. […] These cytokines were not secreted by the carcinoma cells.

[3] = tested on: healthy, differentiated pediatric kidney cells; assay: extended microarray analysis (Illumina HumanHT-12); format: cell-based, human
Protocol: as §1, §3

bladder cancer [4] = details: mouse, in vivo; cited from earlier work
[5] = tested on: p38, HSP27 in healthy, differentiated kidney cells; assay: MAPK phosphorylation in healthy cells; format: cell-based, human
[6] = tested on: Human renal tubular epithelial cells (HRTEC); assay: Ca^2+ and K^+ levels in healthy, differentiated cells in primary culture; format: cell-based; details: HAMLET 35 μM
Protocol: Human renal tubular epithelial cells (HRTEC) were preincubated with Fluo-4 as described, exposed to HAMLET (35 μM) and examined by real time confocal microscopy.
To further characterize ion channel activation by HAMLET, carcinoma cells were pretreated with defined channel blockers. Amiloride is a sodium channel inhibitor with effects on mechanosensitive channels, barium chloride (BaCl2) is a general K^+ channel inhibitor, gadolinium chloride (GdCl3) inhibits mechanosensitive channels, Ruthenium red is a general Ca^2+ inhibitor and tetrandrine inhibits large conductance, Ca^2+ activated K^+ channels. The carcinoma cells were preincubated with Fluo-4 as described above, pretreated with each of the channel inhibitors for 30 minutes, exposed to HAMLET (35 μM) and examined by real time confocal imaging. Furthermore, cells treated with EGTA were compared to cells with intact extracellular Ca^2+ levels, to distinguish the early peak from the subsequent influx of Ca^2+ (FIG. 1B, Table in FIG. 8).

bladder cancer [7] = details: local instillations; cited from earlier work
tumor cells [8] = assay: Tumoricidal Activity of Oleate-HAMLET (cell death method of Example 1); format: cell-based; details: 0.5 mg/ml
[9] = tested on: human lung carcinoma (A549) cells; assay: extended microarray analysis (Illumina HumanHT-12); format: cell-based
Protocol: as §1, §2

glioblastoma xenograft = details: rat, in vivo; cited from earlier work

Molecule | rescue from HAMLET-induced cell death ((HeLa cells)) | effect of inhibitor on internalization of HAMLET (tumor cells [1]) | effect on skin papillomas (skin papillomas) | number of genes responding to HAMLET [2] | number of genes responding to HAMLET [3] | therapeutic efficacy in bladder cancer (bladder cancer [4]) | phosphorylation of p38, its isoforms, or HSP27 [5] | Ca^2+ response in HRTECs [6] | duration of Ca^2+ response in HRTECs [6] | death of tumor cells vs healthy tissue (bladder cancer [7]) | Trypan blue (tumor cells [8]; Control 88) | ATP Activity (tumor cells [8]; Control 100) | DUSP1 upregulation [9] | DUSP10 upregulation [9] | number of genes with minimum log 2-fold change of 1.2 compared to PBS-treated control cells ([9]; adjusted p-value <0.05) | cell death in healthy brain tissue (glioblastoma xenograft) | tumor progression and survival (glioblastoma xenograft)
[Ba+2].[Cl-].[Cl-] [BaCl2, barium chloride] | rescue effect | inhibited internalization |  |  |  |  |  |  |  |  |  |  |  |  |  |  | 
NC(N)=NC(=O)c1nc(Cl)c(N)nc1N [amiloride, 3,5-diamino-6-chloro-N-(diaminomethylene)pyrazine-2-carboxamide] | rescue effect | inhibited internalization |  |  |  |  |  |  |  |  |  |  |  |  |  |  | 
HAMLET (protein, UniProt P00709 20-142, looked up, oleic acid complex) Alpha-lactalbumin: KQFTKCELSQLLKDIDGYGGIALPELICTMFHTSGYDTQAIVENNESTEYGLFQISNKLWCKSSQVPQSRNICDISCDKFLDDDITDDIMCAKKILDIKGIDYWLAHKALCTEKLEQWLCEKL |  |  | removed or reduced the size of skin papillomas | 4424 genes | 2064 genes | Therapeutic efficacy | no phosphorylation of p38, its isoforms, or HSP27 | weak and transient Ca^2+ response | about 90 seconds | caused rapid death of tumor cells but not of healthy tissue surrounding the tumor | 8 | 21% | 1.34 log 2-fold change | 1.98 log 2-fold change | Three hundred sixty-seven | without evidence of cell death in healthy brain tissue | delayed tumor progression and led to increased survival
